Measurements taken from patent US20130028895A1, “EXOSOME INHIBITING AGENTS AND USES THEREOF” (priority 2011, published 2013).

Tests used:
[1] = test system: lymphoma cells; assay: CDC susceptibility: inhibitors plus rituximab with 10% active human complement; type: cell-based; conditions: concomitant incubation with rituximab
Procedure: (§1) […] lymphoma cells were exposed to inhibitors of exosome synthesis or release at non-toxic dose ranges. Exosomes were harvested after a 24 h incubation period, and yields were measured by AChE activity (a) and detection of flotillin-2 by Western Blot (b). […] Significant differences to controls without inhibitors (one-way ANOVA with Dunn's post test) are marked with asterices, equivalent results were obtained for the cell lines Balm-3 and Su-DHL-4 (FIG. 10).
(§2) After 24 hours at 37° C., cell viability was determined in triplicates by […] staining as described before. The effect on viability was expressed as the ratio of values from treated versus untreated samples, i.e. specific viability=100× absorbance with antibody treatment/absorbance of untreated control. To detect complement decomposition of C3 in supernatant of exosome coupled to beads, monoclonal antibody 13/15 was coated onto 96-well Medisorp plates (NUNC, Medisorp, Thermo Fisher Scientific) blocked, and washed. Subsequently, appropriately diluted supernatant of exosome:bead complex samples were added to the plate for 60 minutes, washed, and incubated with rabbit anti-C3d for 60 min. After washing, finally anti-rabbit Fc conjugated to horseradish peroxidase (anti-rFc-HRP) was added for 60 minutes, before a further washing and addition of TMB substrate solution. […]

[2] = test system: OCI-Ly1 lymphoma cells; assay: Inhibition of exosome shedding by inhibitors (AChE activity, flotillin-2 Western blot); type: cell-based, human; conditions: non-toxic dose ranges, 24 h
Procedure: as §1
5×10^7 lymphoma cells were exposed to inhibitors of exosome synthesis or release at non-toxic dose ranges. Exosomes were harvested after a 24 h incubation period, and yields were measured by AChE activity. Significant differences to controls without inhibitors (one-way ANOVA) are marked with asterices.
(§3) Exosomes were prepared by differential centrifugation according to standard protocols (modified according to Valadi, H. et al. Nat. Cell Biol. 9, 654-659 (2007)). […] Exosomes were quantified by measuring whole protein according to standard protocols (BioRad-DC-Protein-Assay), Western blot detecting flotillin-2 in comparison with whole cells or control exosome preparations, and acetyl-cholin-esterase (AChE) activity as previously described (Savina, A., Fader, C. M., Damiani, M. T., & Colombo, M. I. Traffic. 6, 131-143 (2005)).

[3] = biological target: T1, exosomal CD20 (Homo sapiens, UniProt P11836); assay: Binding of therapeutic anti-CD20 antibodies to lymphoma exosomes (immunogold, Western blot, FACS of exosome-labelled beads); conditions: purified exosome-labelled beads, Su-DHL-4
T1 construct: endogenous in cells; host or cells: exosomes purified from culture supernatants of Balm-3 and Su-DHL-4 lymphoma cells
T1 sequence (P11836 1-297): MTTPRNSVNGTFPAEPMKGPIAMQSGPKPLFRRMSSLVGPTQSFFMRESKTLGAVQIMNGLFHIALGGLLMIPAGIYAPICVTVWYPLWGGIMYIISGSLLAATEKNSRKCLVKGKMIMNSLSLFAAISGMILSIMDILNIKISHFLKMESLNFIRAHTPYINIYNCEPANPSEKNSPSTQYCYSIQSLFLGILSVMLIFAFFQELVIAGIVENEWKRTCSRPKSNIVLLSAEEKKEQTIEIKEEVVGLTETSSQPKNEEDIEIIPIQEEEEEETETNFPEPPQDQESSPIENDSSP
Procedure: Cells or exosomes coupled to beads were stained with fluorescence-labelled monoclonal antibodies, and analyzed by flow cytometry.
FACS analysis of exosomal surface proteins was carried out after exosomes were coupled to latex beads as previously described (Thery, C., Zitvogel, L., & Amigorena, S, Nat. Rev. Immunol. 2, 569-579 (2002)). Exosomes (40 μg protein) were incubated in 30 μl PBS with 4 μm aldehyde/sulfate latex beads (3 μl of a 4% w/v suspension, Invitrogen) for 15 min., and again for 2 h after addition of 500 μl PBS at room temperature (RT) under constant agitation. The reaction was stopped by addition of 100 μl 1M glycine for 30 min. at RT with gentle agitation, followed by three washes in PBS/0.5% w/v bovine serum albumin (BSA). Antibody staining followed the protocols for antibody staining of cells in suspension.
Detection of membrane-bound fluorescence were performed using standard protocols for flow cytometry. 1×10^5 cells per condition were washed once with PBS and thereafter incubated for 30 min at room temperature and protected from light with either primary antibody or isotype control (both 1:50).

[4] = test system: lymphoma cell lines; assay: CDC susceptibility after RNAi silencing of ABCA3; type: cell-based, human; conditions: rituximab in the presence of complement, vs lv GFP control
Procedure: (§4) The effects were measured after incubation for 48 h by AChE activity (b, cell line Balm-3, significance tested by one-way ANOVA), whole exosomal protein (c, significance tested by Student's two-sample t-test), as well as flotillin-2 detection from exosome preparations in the cell culture supernatant (d). Addressing ABCA3 overexpression, 4×10^7 cells of HEK293A, the stable ABCA3 overexpressing cell line HEK293A-ABCA3, as well as K562 cells were incubated for 17 h in 36 ml of exosome-free cell culture medium, and exosome yields measured as total exosomal protein.
as §2, with “min.” for “min. After washing, finally anti-rabbit Fc conjugated to horseradish peroxidase (anti-rFc-HRP) was added for 60 minutes, before a further washing and addition of TMB substrate solution.”

[5] = test system: ABCA3; assay: Exosome release after silencing of ABCA3 by lentiviral shRNA; type: cell-based, human
Procedure: as §4
As small molecules were used at the concentrations indicated: mTOR inhibitor rapamycin, COX-2 inhibitor indometacin, cholesterol synthesis inhibitor U18666A (all from Sigma). As fluorescent dyes CalceinAM and PKH26 were applied (both from Molecular Probes). […]
as §3

`CCN(CC)CCO[C@H]1CC[C@@]2(C)C(=CC[C@@H]3[C@@H]2CC[C@]2(C)C(=O)CC[C@@H]32)C1` [U18666A] was tested, and the “CDC susceptibility / cytolytic activity of rituximab” value [1] was “Enhanced CDC Susceptibility” and the “exosome shedding / release” value [2] was “Inhibition of Exosome Shedding”.

In the case of “GA101: therapeutic anti-CD20 monoclonal antibody (type II, Roche)”, the “exosomal binding by FACS” value [3] is reported as “Exosomal binding”.

B1: anti-ABCA3 shRNA: lentiviral shRNA silencing ABCA3, sequences SEQ ID NO: 1 and SEQ ID NO: 2 cloned into pLKO.1 (nucleic acid)
chain 1: CCGGGCCCAGCTCATTGGGAAATTTCTCGAGAAATTTCCCAATGAGCTGGGCTTTTTG
chain 2: AATTCAAAAAAAATTTCCCAATGAGCTGGGCCTCGAGGCCCAGCTCATTGGGAAATTT
modifications: the letters are possibly those of the target site
B1 was tested, and the “susceptibility to CDC” value ([4]; listed as lentiviral RNAi) was “significantly increased the susceptibility of the lymphoma cells to CDC-mediated lysis”, the “susceptibility to CDC” value ([4]; listed as shRNA against ABCA3) was “increased susceptibility of lymphoma cell lines to CDC” and the “exosome release vs mock transfected controls” value ([5]; 48 h, AChE activity, whole exosomal protein, flotillin-2, Balm-3) was “decreased exosome release”. The “reduction of exosome release” value ([5]; Balm-3, Su-DHL-4 and OCI-Ly1) was “approximately 50%”.
